Laboratory results from US20160046721A1.

Columns and labels:
[1] = biological target: human ER-α36 (human) (UniProt P03372); assay: flow cytometry on MCF-7 cells, isotype control; lower left panel, which carries no sample name: assigned by peak height and by the order of the samples
[2] = biological target: human ER-α36 (human) (UniProt P03372); assay: flow cytometry on SK-BR-3 cells, isotype control; lower left panel without sample name, assigned by the order of the samples
[3] = biological target: human ER-α36 (human) (UniProt P03372); assay: flow cytometry on K562 cells, isotype control, concentration not given
[4] = biological target: human ER-α36 (human) (UniProt P03372); assay: flow cytometry on MHCC-97H cells, isotype control; first lower panel without sample name, assigned by peak height (about 75) against histogram 4 of the overlay
[5] = biological target: human ER-α36 (human) (UniProt P03372); assay: flow cytometry on 3T3 cells, ER-α36 Full length Clone#2, isotype control at 2.5 µg/ml
[6] = biological target: ER-α36 LBD (3T3 Clone#4); assay: flow cytometry on 3T3 cells, ER-α36 LBD Clone#4, isotype control at 2.5 µg/ml
ER-α36 LBD (3T3 Clone#4), sequence (single chain, as listed by the source): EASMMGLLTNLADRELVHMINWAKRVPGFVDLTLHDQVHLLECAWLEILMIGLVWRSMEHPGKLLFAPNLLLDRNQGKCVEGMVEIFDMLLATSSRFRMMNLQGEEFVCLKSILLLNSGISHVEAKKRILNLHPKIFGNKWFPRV

[7] = biological target: human ER-α36 (human) (UniProt P03372); assay: flow cytometry on MHCC-97H cells, isotype control; second lower panel without sample name, assigned by peak height against histogram 3 of the overlay

human ER-α36 (human), sequence (P03372 other isoform, or with tags, fused parts or gaps): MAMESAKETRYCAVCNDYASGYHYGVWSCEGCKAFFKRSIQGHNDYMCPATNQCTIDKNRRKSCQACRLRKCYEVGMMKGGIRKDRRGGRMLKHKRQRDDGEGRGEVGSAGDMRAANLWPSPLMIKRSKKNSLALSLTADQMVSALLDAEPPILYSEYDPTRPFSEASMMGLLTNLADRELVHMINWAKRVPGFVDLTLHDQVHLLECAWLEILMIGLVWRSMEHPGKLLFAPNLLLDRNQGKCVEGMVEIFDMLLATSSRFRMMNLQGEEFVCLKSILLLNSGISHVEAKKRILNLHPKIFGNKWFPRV

Yellow-A subset (percent of cells in the gate) [1]: 19.9% | Yellow-A subset (percent of cells in the gate) [2]: 13.1% | Geom. Mean FL1 [3]: 24.3 | Yellow-A subset (percent of cells in the gate) [4]: 6.82% | %Gated (region B) [5]: 4.86% | %Gated (region B) [6]: 4.93% | Yellow-A subset (percent of cells in the gate) [7]: 5.68%
Substance: mouse IgG2b (antibody)
